Test results reported in IntAct's records for PubMed 21804557.

B1: Indoleamine 2,3-dioxygenase 1 (Mus musculus), P28776 (parent)
chain: MALSKISPTEGSRRILEDHHIDEDVGFALPHPLVELPDAYSPWVLVARNLPVLIENGQLREEVEKLPTLSTDGLRGHRLQRLAHLALGYITMAYVWNRGDDDVRKVLPRNIAVPYCELSEKLGLPPILSYADCVLANWKKKDPNGPMTYENMDILFSFPGGDCDKGFFLVSLLVEIAASPAIKAIPTVSSAVERQDLKALEKALHDIATSLEKAKEIFKRMRDFVDPDTFFHVLRIYLSGWKCSSKLPEGLLYEGVWDTPKMFSGGSAGQSSIFQSLDVLLGIKHEAGKESPAEFLQEMREYMPPAHRNFLFFLESAPPVREFVISRHNEDLTKAYNECVNGLVSVRKFHLAIVDTYIMKPSKKKPTDGDKSEEPSNVESRGTGGTNPMTFLRSVKDTTEKALLSWP

Variants of: B1
Details: with ptn6_mouse Ptpn6, P29351

effect of a mutation on the interaction | Variant
decreasing interaction | Y115F;Y253F
